# Source: PMC2756654 (Journal of molecular biology, 2008)
# B1: Human C6A/C111S SOD (Cu, Zn superoxide dismutase) (enzyme)
# chain: not shown
# Molecular target: the molecule itself
# Assay: unfolding kinetics by CD
protein,measurement,value
B1,koff,0.000381 s⁻¹
